This is an account of results in publication PMC7567794 (Scientific Reports, 2020).

The target of this assay is T1, tissue factor (S33 to E251) (Homo sapiens, UniProt P13726).
T1 construct: tissue factor (TF), residues S33 to E251; the antigen of the antibody D3h44 in PDB 1JPS; The tag was removed with Ulp1; tag-free TF was used; Antigen residues named in the text (S202, K169, P194, I152) follow the numbering of PDB 1JPS, not that of the construct limits; also called TF; antigen; source: E. coli BL21 (DE3), purified (Ni-NTA, SEC); not shown: His6, N-terminal, cleaved; SUMO, …
Briefly: SPR; Biacore 8K; TF immobilised on a CM5 chip by amine coupling (450-750 response units); Fab as analyte; single-cycle kinetics, association 120 s, dissociation 1800 s, no regeneration; PBS with 0.005% Tween-20; three measurements. The note with it: both partners purified.

T1 sequence (P13726 33-251): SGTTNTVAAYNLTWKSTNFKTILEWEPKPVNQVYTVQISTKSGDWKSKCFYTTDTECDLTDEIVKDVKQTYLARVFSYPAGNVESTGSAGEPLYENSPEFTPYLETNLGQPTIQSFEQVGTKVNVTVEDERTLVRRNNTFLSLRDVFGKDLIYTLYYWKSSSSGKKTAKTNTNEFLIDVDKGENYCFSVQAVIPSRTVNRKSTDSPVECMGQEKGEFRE

B1: D3h44 Fab L-H91E (Fab, V domains shown)
VH: EVQLVESGGGLVQPGGSLRLSCAASGFNIKEYYMHWVRQAPGKGLEWVGLIDPEQGNTIYDPKFQDRATISADNSKNTAYLQMNSLRAEDTAVYYCARDTAAYFDYWGQGTLVTVSS
VL: DIQMTQSPSSLSASVGDRVTITCRASRDIKSYLNWYQQKPGKAPKVLIYYATSLAEGVPSRFSGSGSGTDYTLTISSLQPEDFATYYCLQEGESPWTFGQGTKVEIK
notes: as the heavy chain of m2 (PDB 1JPS chain H); as the light chain of m2 (PDB 1JPS chain L) with the stated change; Tag as for m2; source: ExpiCHO, purified (Ni-NTA, SEC)
As to B1, the affinity, expressed as Kd, was 0.02 nM; the koff (in general, the first-order rate constant of dissociation) is 2.7e-05 s⁻¹; the kon (commonly the second-order rate constant of association) was determined as 1.4e+06 M⁻¹ s⁻¹.

B2: D3h44 Fab H-A101V (Fab, V domains shown)
VH: EVQLVESGGGLVQPGGSLRLSCAASGFNIKEYYMHWVRQAPGKGLEWVGLIDPEQGNTIYDPKFQDRATISADNSKNTAYLQMNSLRAEDTAVYYCARDTVAYFDYWGQGTLVTVSS
VL: DIQMTQSPSSLSASVGDRVTITCRASRDIKSYLNWYQQKPGKAPKVLIYYATSLAEGVPSRFSGSGSGTDYTLTISSLQPEDFATYYCLQHGESPWTFGQGTKVEIK
notes: as the heavy chain of m2 (PDB 1JPS chain H) with the stated change; as the light chain of m2 (PDB 1JPS chain L); Tag as for m2; source: ExpiCHO, purified (Ni-NTA, SEC)
On to B2, for which the Kd (commonly the concentration at which binding is half-saturated) amounted to 0.14 nM, the off-rate (koff) amounted to 0.00018 s⁻¹ and the kon is 1.3e+06 M⁻¹ s⁻¹.

B3: D3h44 Fab H-K30Q (Fab, V domains shown)
VH: EVQLVESGGGLVQPGGSLRLSCAASGFNIQEYYMHWVRQAPGKGLEWVGLIDPEQGNTIYDPKFQDRATISADNSKNTAYLQMNSLRAEDTAVYYCARDTAAYFDYWGQGTLVTVSS
VL: DIQMTQSPSSLSASVGDRVTITCRASRDIKSYLNWYQQKPGKAPKVLIYYATSLAEGVPSRFSGSGSGTDYTLTISSLQPEDFATYYCLQHGESPWTFGQGTKVEIK
notes: as for B2
The molecule B3 displayed a Kd of 0.097 nM, an off-rate (koff) of 0.00014 s⁻¹ and a kon of 1.5e+06 M⁻¹ s⁻¹.

B4: D3h44 Fab H-K30Q/H-E54H double-point mutant (Fab, V domains shown)
VH: EVQLVESGGGLVQPGGSLRLSCAASGFNIQEYYMHWVRQAPGKGLEWVGLIDPHQGNTIYDPKFQDRATISADNSKNTAYLQMNSLRAEDTAVYYCARDTAAYFDYWGQGTLVTVSS
VL: DIQMTQSPSSLSASVGDRVTITCRASRDIKSYLNWYQQKPGKAPKVLIYYATSLAEGVPSRFSGSGSGTDYTLTISSLQPEDFATYYCLQHGESPWTFGQGTKVEIK
notes: as the heavy chain of m2 (PDB 1JPS chain H) with the stated changes; as the light chain of m2 (PDB 1JPS chain L); Tag as for m2; source: ExpiCHO, purified (Ni-NTA, SEC)
B4 displayed a Kd of 0.029 nM, a dissociation rate constant (koff) of 2.6e-05 s⁻¹ and a kon of 940000 M⁻¹ s⁻¹.

B5: D3h44 Fab H-N57Y (Fab, V domains shown)
VH: EVQLVESGGGLVQPGGSLRLSCAASGFNIKEYYMHWVRQAPGKGLEWVGLIDPEQGYTIYDPKFQDRATISADNSKNTAYLQMNSLRAEDTAVYYCARDTAAYFDYWGQGTLVTVSS
VL: DIQMTQSPSSLSASVGDRVTITCRASRDIKSYLNWYQQKPGKAPKVLIYYATSLAEGVPSRFSGSGSGTDYTLTISSLQPEDFATYYCLQHGESPWTFGQGTKVEIK
notes: as for B2
Consider B5, for which the Kd is 0.015 nM, the koff is 1.8e-05 s⁻¹ and the kon was found to be 1.3e+06 M⁻¹ s⁻¹.

B6: D3h44 Fab L-H91S (Fab, V domains shown)
VH: EVQLVESGGGLVQPGGSLRLSCAASGFNIKEYYMHWVRQAPGKGLEWVGLIDPEQGNTIYDPKFQDRATISADNSKNTAYLQMNSLRAEDTAVYYCARDTAAYFDYWGQGTLVTVSS
VL: DIQMTQSPSSLSASVGDRVTITCRASRDIKSYLNWYQQKPGKAPKVLIYYATSLAEGVPSRFSGSGSGTDYTLTISSLQPEDFATYYCLQSGESPWTFGQGTKVEIK
notes: as for B1
In the case of B6, the Kd was 17 nM, the koff is 0.059 s⁻¹ and the kon was 1.6e+07 M⁻¹ s⁻¹.

B7: D3h44 Fab L-N34D (Fab, V domains shown)
VH: EVQLVESGGGLVQPGGSLRLSCAASGFNIKEYYMHWVRQAPGKGLEWVGLIDPEQGNTIYDPKFQDRATISADNSKNTAYLQMNSLRAEDTAVYYCARDTAAYFDYWGQGTLVTVSS
VL: DIQMTQSPSSLSASVGDRVTITCRASRDIKSYLDWYQQKPGKAPKVLIYYATSLAEGVPSRFSGSGSGTDYTLTISSLQPEDFATYYCLQHGESPWTFGQGTKVEIK
notes: as for B1
For B7, the Kd came out at 0.31 nM, the koff was 0.00062 s⁻¹ and the kon turned out to be 2e+06 M⁻¹ s⁻¹.

B8: D3h44 Fab H-I59H (Fab, V domains shown)
VH: EVQLVESGGGLVQPGGSLRLSCAASGFNIKEYYMHWVRQAPGKGLEWVGLIDPEQGNTHYDPKFQDRATISADNSKNTAYLQMNSLRAEDTAVYYCARDTAAYFDYWGQGTLVTVSS
VL: DIQMTQSPSSLSASVGDRVTITCRASRDIKSYLNWYQQKPGKAPKVLIYYATSLAEGVPSRFSGSGSGTDYTLTISSLQPEDFATYYCLQHGESPWTFGQGTKVEIK
notes: as for B2
For the molecule B8, binding was characterised by a dissociation constant (Kd) of 15 nM, the koff was 0.038 s⁻¹ and the kon worked out at 3.6e+06 M⁻¹ s⁻¹.

B9: D3h44 Fab L-H91N (Fab, V domains shown)
VH: EVQLVESGGGLVQPGGSLRLSCAASGFNIKEYYMHWVRQAPGKGLEWVGLIDPEQGNTIYDPKFQDRATISADNSKNTAYLQMNSLRAEDTAVYYCARDTAAYFDYWGQGTLVTVSS
VL: DIQMTQSPSSLSASVGDRVTITCRASRDIKSYLNWYQQKPGKAPKVLIYYATSLAEGVPSRFSGSGSGTDYTLTISSLQPEDFATYYCLQNGESPWTFGQGTKVEIK
notes: as for B1
On to B9, for which the affinity, expressed as Kd, was 0.2 nM; the dissociation rate constant (koff) is 0.00026 s⁻¹; the kon worked out at 1.3e+06 M⁻¹ s⁻¹.

B10: D3h44 Fab H-A101S/H-A102H double-point mutant (Fab, V domains shown)
VH: EVQLVESGGGLVQPGGSLRLSCAASGFNIKEYYMHWVRQAPGKGLEWVGLIDPEQGNTIYDPKFQDRATISADNSKNTAYLQMNSLRAEDTAVYYCARDTSHYFDYWGQGTLVTVSS
VL: DIQMTQSPSSLSASVGDRVTITCRASRDIKSYLNWYQQKPGKAPKVLIYYATSLAEGVPSRFSGSGSGTDYTLTISSLQPEDFATYYCLQHGESPWTFGQGTKVEIK
notes: as for B4
B10 yielded a Kd of 0.15 nM, a koff of 0.00018 s⁻¹ and a kon of 1.2e+06 M⁻¹ s⁻¹.

B11: D3h44 Fab H-Y33Q/H-A101R double-point mutant (Fab, V domains shown)
VH: EVQLVESGGGLVQPGGSLRLSCAASGFNIKEYQMHWVRQAPGKGLEWVGLIDPEQGNTIYDPKFQDRATISADNSKNTAYLQMNSLRAEDTAVYYCARDTRAYFDYWGQGTLVTVSS
VL: DIQMTQSPSSLSASVGDRVTITCRASRDIKSYLNWYQQKPGKAPKVLIYYATSLAEGVPSRFSGSGSGTDYTLTISSLQPEDFATYYCLQHGESPWTFGQGTKVEIK
notes: as for B4
Consider B11, for which the binding result is “no binding”.

B12: D3h44 Fab L-H91Q (Fab, V domains shown)
VH: EVQLVESGGGLVQPGGSLRLSCAASGFNIKEYYMHWVRQAPGKGLEWVGLIDPEQGNTIYDPKFQDRATISADNSKNTAYLQMNSLRAEDTAVYYCARDTAAYFDYWGQGTLVTVSS
VL: DIQMTQSPSSLSASVGDRVTITCRASRDIKSYLNWYQQKPGKAPKVLIYYATSLAEGVPSRFSGSGSGTDYTLTISSLQPEDFATYYCLQQGESPWTFGQGTKVEIK
notes: as for B1
Molecule B12 displayed a Kd of 0.23 nM, a koff of 0.00038 s⁻¹ and a kon of 1.7e+06 M⁻¹ s⁻¹.

B13: D3h44 Fab L-N34D/L-H91S double-point mutant (Fab, V domains shown)
VH: EVQLVESGGGLVQPGGSLRLSCAASGFNIKEYYMHWVRQAPGKGLEWVGLIDPEQGNTIYDPKFQDRATISADNSKNTAYLQMNSLRAEDTAVYYCARDTAAYFDYWGQGTLVTVSS
VL: DIQMTQSPSSLSASVGDRVTITCRASRDIKSYLDWYQQKPGKAPKVLIYYATSLAEGVPSRFSGSGSGTDYTLTISSLQPEDFATYYCLQSGESPWTFGQGTKVEIK
notes: as the heavy chain of m2 (PDB 1JPS chain H); as the light chain of m2 (PDB 1JPS chain L) with the stated changes; Tag as for m2; source: ExpiCHO, purified (Ni-NTA, SEC)
On to B13, for which the Kd amounted to 0.025 nM, the koff stood at 3e-05 s⁻¹ and the kon is 1.2e+06 M⁻¹ s⁻¹.
